System: Escherichia coli TOP10
Assay: shrunken log2 fold change of peptide-encoding DNA abundance (4.5 h post-induction vs induction); higher = less antimicrobial activity (less host growth inhibition)
Details: time post-induction: 4.5 h; library: site-saturation at positions 5, 18, 19, 20
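Note: peptides expressed intracellularly from a pBAD plasmid library in pooled LB shake-flask culture, induced with 0.3% L-arabinose, DNA abundance read by NGS, three biological replicates, DESeq2 with apeglm shrinkage.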

RRIRGRPPRLPRPRPRPEKFPRP
shrunken log2 fold change: 0.716

RRIRGRPPRLPRPRPRPEKQPRP
shrunken log2 fold change: 0.034

RRIRGRPPRLPRPRPRPEKTPRP
shrunken log2 fold change: -0.0522

RRIRGRPPRLPRPRPRPEMDPRP
shrunken log2 fold change: 0.982

RRIRGRPPRLPRPRPRPENPPRP
shrunken log2 fold change: 0.842

RRIRGRPPRLPRPRPRPEPVPRP
shrunken log2 fold change: 0.806

RRIRGRPPRLPRPRPRPEQQPRP
shrunken log2 fold change: -0.0199

RRIRGRPPRLPRPRPRPETAPRP
shrunken log2 fold change: 1.76

RRIRGRPPRLPRPRPRPETVPRP
shrunken log2 fold change: 0.431

RRIRGRPPRLPRPRPRPEVEPRP
shrunken log2 fold change: 2.03

RRIRGRPPRLPRPRPRPEWHPRP
shrunken log2 fold change: 0.386

RRIRGRPPRLPRPRPRPEWSPRP
shrunken log2 fold change: 0.644

RRIRGRPPRLPRPRPRPFAAPRP
shrunken log2 fold change: 1.82

RRIRGRPPRLPRPRPRPFACPRP
shrunken log2 fold change: 0.39

RRIRGRPPRLPRPRPRPFEQPRP
shrunken log2 fold change: 0.618

RRIRGRPPRLPRPRPRPFEVPRP
shrunken log2 fold change: 0.121

RRIRGRPPRLPRPRPRPFFLPRP
shrunken log2 fold change: 0.301

RRIRGRPPRLPRPRPRPFFTPRP
shrunken log2 fold change: 0.215

RRIRGRPPRLPRPRPRPFGRPRP
shrunken log2 fold change: -0.0748

RRIRGRPPRLPRPRPRPFIFPRP
shrunken log2 fold change: 0.516

RRIRGRPPRLPRPRPRPFIHPRP
shrunken log2 fold change: 0.0282

RRIRGRPPRLPRPRPRPFIMPRP
shrunken log2 fold change: -0.285

RRIRGRPPRLPRPRPRPFKFPRP
shrunken log2 fold change: -0.11

RRIRGRPPRLPRPRPRPFKGPRP
shrunken log2 fold change: -0.00192

RRIRGRPPRLPRPRPRPFMEPRP
shrunken log2 fold change: -0.114

RRIRGRPPRLPRPRPRPFMMPRP
shrunken log2 fold change: -0.467

RRIRGRPPRLPRPRPRPFMPPRP
shrunken log2 fold change: -0.0647

RRIRGRPPRLPRPRPRPFNGPRP
shrunken log2 fold change: 0.0458

RRIRGRPPRLPRPRPRPFQVPRP
shrunken log2 fold change: 0.0301

RRIRGRPPRLPRPRPRPFRQPRP
shrunken log2 fold change: 0.124

RRIRGRPPRLPRPRPRPFTFPRP
shrunken log2 fold change: -0.0577

RRIRGRPPRLPRPRPRPFTIPRP
shrunken log2 fold change: -0.0307

RRIRGRPPRLPRPRPRPFVAPRP
shrunken log2 fold change: 0.751

RRIRGRPPRLPRPRPRPFVFPRP
shrunken log2 fold change: 0.608

RRIRGRPPRLPRPRPRPFVLPRP
shrunken log2 fold change: -0.000308

RRIRGRPPRLPRPRPRPFVVPRP
shrunken log2 fold change: 0.222

RRIRGRPPRLPRPRPRPFWHPRP
shrunken log2 fold change: 0.297

RRIRGRPPRLPRPRPRPFWWPRP
shrunken log2 fold change: 0.806

RRIRGRPPRLPRPRPRPFWYPRP
shrunken log2 fold change: -0.0145

RRIRGRPPRLPRPRPRPFYEPRP
shrunken log2 fold change: 0.0153

RRIRGRPPRLPRPRPRPFYVPRP
shrunken log2 fold change: 0.0462

RRIRGRPPRLPRPRPRPGAAPRP
shrunken log2 fold change: 1.43

RRIRGRPPRLPRPRPRPGAWPRP
shrunken log2 fold change: 1.56

RRIRGRPPRLPRPRPRPGAYPRP
shrunken log2 fold change: 0.339

RRIRGRPPRLPRPRPRPGCGPRP
shrunken log2 fold change: 1.31

RRIRGRPPRLPRPRPRPGEWPRP
shrunken log2 fold change: -0.0156

RRIRGRPPRLPRPRPRPGHWPRP
shrunken log2 fold change: 0.387

RRIRGRPPRLPRPRPRPGIMPRP
shrunken log2 fold change: 0.374

RRIRGRPPRLPRPRPRPGIPPRP
shrunken log2 fold change: 0.351

RRIRGRPPRLPRPRPRPGKVPRP
shrunken log2 fold change: 0.598

RRIRGRPPRLPRPRPRPGMAPRP
shrunken log2 fold change: 0.877

RRIRGRPPRLPRPRPRPGNHPRP
shrunken log2 fold change: -0.147

RRIRGRPPRLPRPRPRPGNMPRP
shrunken log2 fold change: -0.0382

RRIRGRPPRLPRPRPRPGPCPRP
shrunken log2 fold change: 0.854

RRIRGRPPRLPRPRPRPGPIPRP
shrunken log2 fold change: 0.619

RRIRGRPPRLPRPRPRPGQRPRP
shrunken log2 fold change: 0.345

RRIRGRPPRLPRPRPRPGQTPRP
shrunken log2 fold change: 0.405

RRIRGRPPRLPRPRPRPGRKPRP
shrunken log2 fold change: 0.747

RRIRGRPPRLPRPRPRPGRQPRP
shrunken log2 fold change: 0.654

RRIRGRPPRLPRPRPRPGTSPRP
shrunken log2 fold change: 0.278

RRIRGRPPRLPRPRPRPGTVPRP
shrunken log2 fold change: 0.206

RRIRGRPPRLPRPRPRPGVYPRP
shrunken log2 fold change: 0.0589

RRIRGRPPRLPRPRPRPGWYPRP
shrunken log2 fold change: -0.0318

RRIRGRPPRLPRPRPRPHCRPRP
shrunken log2 fold change: 0.376

RRIRGRPPRLPRPRPRPHEDPRP
shrunken log2 fold change: 3.55

RRIRGRPPRLPRPRPRPHEIPRP
shrunken log2 fold change: 0.0317

RRIRGRPPRLPRPRPRPHFIPRP
shrunken log2 fold change: -0.139

RRIRGRPPRLPRPRPRPHFKPRP
shrunken log2 fold change: 0.178

RRIRGRPPRLPRPRPRPHFSPRP
shrunken log2 fold change: -0.115

RRIRGRPPRLPRPRPRPHFTPRP
shrunken log2 fold change: 0.233

RRIRGRPPRLPRPRPRPHGLPRP
shrunken log2 fold change: 0.211

RRIRGRPPRLPRPRPRPHGWPRP
shrunken log2 fold change: 0.161

RRIRGRPPRLPRPRPRPHHAPRP
shrunken log2 fold change: 0.254

RRIRGRPPRLPRPRPRPHHEPRP
shrunken log2 fold change: 0.325

RRIRGRPPRLPRPRPRPHHVPRP
shrunken log2 fold change: -0.00478

RRIRGRPPRLPRPRPRPHIMPRP
shrunken log2 fold change: -0.0914

RRIRGRPPRLPRPRPRPHLPPRP
shrunken log2 fold change: 0.0386

RRIRGRPPRLPRPRPRPHNGPRP
shrunken log2 fold change: 0.0528

RRIRGRPPRLPRPRPRPHPAPRP
shrunken log2 fold change: 0.853

RRIRGRPPRLPRPRPRPHQDPRP
shrunken log2 fold change: 0.165

RRIRGRPPRLPRPRPRPHRCPRP
shrunken log2 fold change: -0.0209

RRIRGRPPRLPRPRPRPHSGPRP
shrunken log2 fold change: -0.0558

RRIRGRPPRLPRPRPRPHSIPRP
shrunken log2 fold change: 0.169

RRIRGRPPRLPRPRPRPHWLPRP
shrunken log2 fold change: 0.14

RRIRGRPPRLPRPRPRPHWWPRP
shrunken log2 fold change: 0.66

RRIRGRPPRLPRPRPRPHYDPRP
shrunken log2 fold change: -0.0292

RRIRGRPPRLPRPRPRPHYFPRP
shrunken log2 fold change: 0.313

RRIRGRPPRLPRPRPRPHYSPRP
shrunken log2 fold change: -0.661

RRIRGRPPRLPRPRPRPHYYPRP
shrunken log2 fold change: -0.119

RRIRGRPPRLPRPRPRPICYPRP
shrunken log2 fold change: 0.543

RRIRGRPPRLPRPRPRPIDFPRP
shrunken log2 fold change: -0.0475

RRIRGRPPRLPRPRPRPIFDPRP
shrunken log2 fold change: 0.378

RRIRGRPPRLPRPRPRPIHMPRP
shrunken log2 fold change: -0.0548

RRIRGRPPRLPRPRPRPIHSPRP
shrunken log2 fold change: -0.441

RRIRGRPPRLPRPRPRPIIFPRP
shrunken log2 fold change: 0.437

RRIRGRPPRLPRPRPRPIIHPRP
shrunken log2 fold change: -0.261

RRIRGRPPRLPRPRPRPIIRPRP
shrunken log2 fold change: 0.07

RRIRGRPPRLPRPRPRPILAPRP
shrunken log2 fold change: 0.492

RRIRGRPPRLPRPRPRPILTPRP
shrunken log2 fold change: 0.351

RRIRGRPPRLPRPRPRPILWPRP
shrunken log2 fold change: 0.376

RRIRGRPPRLPRPRPRPIMGPRP
shrunken log2 fold change: 0.0308

RRIRGRPPRLPRPRPRPIMMPRP
shrunken log2 fold change: -0.0902

RRIRGRPPRLPRPRPRPINKPRP
shrunken log2 fold change: 0.287

RRIRGRPPRLPRPRPRPIQSPRP
shrunken log2 fold change: -0.0426

RRIRGRPPRLPRPRPRPIYTPRP
shrunken log2 fold change: 0.173

RRIRGRPPRLPRPRPRPIYVPRP
shrunken log2 fold change: 1.23

RRIRGRPPRLPRPRPRPKAPPRP
shrunken log2 fold change: 0.855

RRIRGRPPRLPRPRPRPKAQPRP
shrunken log2 fold change: 1.27

RRIRGRPPRLPRPRPRPKATPRP
shrunken log2 fold change: 1.52

RRIRGRPPRLPRPRPRPKAVPRP
shrunken log2 fold change: 0.89

RRIRGRPPRLPRPRPRPKAWPRP
shrunken log2 fold change: 0.922

RRIRGRPPRLPRPRPRPKCRPRP
shrunken log2 fold change: 0.299

RRIRGRPPRLPRPRPRPKCYPRP
shrunken log2 fold change: 0.107

RRIRGRPPRLPRPRPRPKDDPRP
shrunken log2 fold change: 0.293

RRIRGRPPRLPRPRPRPKEFPRP
shrunken log2 fold change: -0.0157

RRIRGRPPRLPRPRPRPKEQPRP
shrunken log2 fold change: 0.0833

RRIRGRPPRLPRPRPRPKGLPRP
shrunken log2 fold change: 0.016

RRIRGRPPRLPRPRPRPKHSPRP
shrunken log2 fold change: 0.209

RRIRGRPPRLPRPRPRPKLGPRP
shrunken log2 fold change: 1.12

RRIRGRPPRLPRPRPRPKLQPRP
shrunken log2 fold change: 0.991

RRIRGRPPRLPRPRPRPKMDPRP
shrunken log2 fold change: 0.738

RRIRGRPPRLPRPRPRPKMHPRP
shrunken log2 fold change: 0.769

RRIRGRPPRLPRPRPRPKNTPRP
shrunken log2 fold change: 0.232

RRIRGRPPRLPRPRPRPKNWPRP
shrunken log2 fold change: 0.466

RRIRGRPPRLPRPRPRPKPCPRP
shrunken log2 fold change: 0.422

RRIRGRPPRLPRPRPRPKPRPRP
shrunken log2 fold change: 1.16

RRIRGRPPRLPRPRPRPKQEPRP
shrunken log2 fold change: 0.0916

RRIRGRPPRLPRPRPRPKQIPRP
shrunken log2 fold change: 0.335

RRIRGRPPRLPRPRPRPKQRPRP
shrunken log2 fold change: 0.471

RRIRGRPPRLPRPRPRPKREPRP
shrunken log2 fold change: -0.00218

RRIRGRPPRLPRPRPRPKRRPRP
shrunken log2 fold change: 1.3

RRIRGRPPRLPRPRPRPKSCPRP
shrunken log2 fold change: 0.959

RRIRGRPPRLPRPRPRPKSTPRP
shrunken log2 fold change: 1.41

RRIRGRPPRLPRPRPRPKTKPRP
shrunken log2 fold change: 0.0509

RRIRGRPPRLPRPRPRPKVNPRP
shrunken log2 fold change: 0.236

RRIRGRPPRLPRPRPRPKWNPRP
shrunken log2 fold change: 0.581

RRIRGRPPRLPRPRPRPKYDPRP
shrunken log2 fold change: 1.62

RRIRGRPPRLPRPRPRPLASPRP
shrunken log2 fold change: 0.894

RRIRGRPPRLPRPRPRPLCMPRP
shrunken log2 fold change: 0.605

RRIRGRPPRLPRPRPRPLDFPRP
shrunken log2 fold change: 0.78

RRIRGRPPRLPRPRPRPLEKPRP
shrunken log2 fold change: 0.725

RRIRGRPPRLPRPRPRPLGSPRP
shrunken log2 fold change: 0.338

RRIRGRPPRLPRPRPRPLHRPRP
shrunken log2 fold change: 0.187

RRIRGRPPRLPRPRPRPLIIPRP
shrunken log2 fold change: -0.05

RRIRGRPPRLPRPRPRPLKFPRP
shrunken log2 fold change: 0.11

RRIRGRPPRLPRPRPRPLKHPRP
shrunken log2 fold change: 0.0581

RRIRGRPPRLPRPRPRPLKPPRP
shrunken log2 fold change: 0.609

RRIRGRPPRLPRPRPRPLKYPRP
shrunken log2 fold change: 0.145

RRIRGRPPRLPRPRPRPLLTPRP
shrunken log2 fold change: 2.34

RRIRGRPPRLPRPRPRPLLYPRP
shrunken log2 fold change: 0.473
